The target of assay [1] is T1, human CD276 (B7-H3) (human, UniProt Q5ZPR3 29-534).
T1 construct: whole, on cells
T1 sequence (looked up): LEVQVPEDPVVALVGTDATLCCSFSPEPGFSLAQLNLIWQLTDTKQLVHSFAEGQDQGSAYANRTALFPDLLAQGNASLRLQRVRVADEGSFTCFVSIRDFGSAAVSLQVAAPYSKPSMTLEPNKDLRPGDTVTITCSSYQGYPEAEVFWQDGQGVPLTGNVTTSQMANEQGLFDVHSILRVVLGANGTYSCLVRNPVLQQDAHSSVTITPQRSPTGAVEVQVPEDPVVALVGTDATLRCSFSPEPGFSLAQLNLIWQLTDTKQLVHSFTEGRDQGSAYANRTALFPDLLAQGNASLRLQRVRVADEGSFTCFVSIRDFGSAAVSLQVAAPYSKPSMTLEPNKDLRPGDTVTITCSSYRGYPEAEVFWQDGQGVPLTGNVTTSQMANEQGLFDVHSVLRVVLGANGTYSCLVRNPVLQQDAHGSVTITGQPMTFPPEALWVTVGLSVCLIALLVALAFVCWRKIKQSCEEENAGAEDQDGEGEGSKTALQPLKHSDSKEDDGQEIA
Description: flow cytometry on HEK293T cells stably expressing the human protein, one concentration.

Assay [2] deals with T2, human CD86 (B7-2) (human, UniProt P42081 24-329).
T2 construct: whole, on cells
T2 sequence (looked up): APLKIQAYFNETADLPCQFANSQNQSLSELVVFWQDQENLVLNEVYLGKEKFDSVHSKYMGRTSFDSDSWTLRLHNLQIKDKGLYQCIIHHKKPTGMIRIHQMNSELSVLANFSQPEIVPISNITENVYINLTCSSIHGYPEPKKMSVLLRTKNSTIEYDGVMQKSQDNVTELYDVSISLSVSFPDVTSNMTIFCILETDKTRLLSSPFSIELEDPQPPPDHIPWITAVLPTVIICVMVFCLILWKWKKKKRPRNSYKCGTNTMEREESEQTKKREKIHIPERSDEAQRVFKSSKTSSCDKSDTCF
The assay is described as above.

Assay [3] concerns the target T3, human ICOSLG (B7-H2) (human, UniProt O75144 19-302).
T3 construct: whole, on cells
T3 sequence (looked up): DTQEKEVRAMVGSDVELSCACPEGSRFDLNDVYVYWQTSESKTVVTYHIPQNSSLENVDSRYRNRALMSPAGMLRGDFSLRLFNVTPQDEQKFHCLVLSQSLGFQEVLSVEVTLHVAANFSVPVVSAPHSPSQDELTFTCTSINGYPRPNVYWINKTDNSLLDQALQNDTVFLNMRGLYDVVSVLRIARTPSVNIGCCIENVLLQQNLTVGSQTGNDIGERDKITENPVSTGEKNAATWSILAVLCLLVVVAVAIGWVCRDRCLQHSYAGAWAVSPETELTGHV
The description is as above.

The target in assay [4] is T4, mouse B7H4 (mouse, UniProt Q7TSP5 25-257).
T4 construct: whole, on cells; also called Mouse B7H4-293T
T4 sequence (looked up): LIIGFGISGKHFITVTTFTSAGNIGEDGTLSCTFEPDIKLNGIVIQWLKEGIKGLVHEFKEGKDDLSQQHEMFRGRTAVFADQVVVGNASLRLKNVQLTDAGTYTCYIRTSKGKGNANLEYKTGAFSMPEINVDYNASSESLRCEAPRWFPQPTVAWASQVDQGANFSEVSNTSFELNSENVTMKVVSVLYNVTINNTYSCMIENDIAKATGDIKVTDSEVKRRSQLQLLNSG
Description: flow cytometry on mouse B7H4-transfected HEK293T cells, PE anti-human IgG Fc secondary antibody.

In assay [5] the target is T5, cynomolgus monkey B7H4 (cynomolgus monkey, UniProt A0A2K5U6P5 25-282).
T5 construct: whole, on cells; also called Monkey B7H4-293T
T5 sequence: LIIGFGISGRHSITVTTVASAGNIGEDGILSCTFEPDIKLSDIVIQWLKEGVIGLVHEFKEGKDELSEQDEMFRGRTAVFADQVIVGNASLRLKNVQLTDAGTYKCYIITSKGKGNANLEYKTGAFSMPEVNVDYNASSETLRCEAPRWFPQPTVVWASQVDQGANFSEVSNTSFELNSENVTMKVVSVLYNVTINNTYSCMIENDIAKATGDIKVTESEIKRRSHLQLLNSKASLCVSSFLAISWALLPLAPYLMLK
Description: flow cytometry on cynomolgus monkey B7H4-transfected HEK293T cells, PE anti-human IgG Fc secondary antibody.

The target in assay [6] is T6, human B7-H7 (HHLA2) (human, UniProt Q9UM44 23-414).
T6 construct: whole, on cells
T6 sequence (looked up): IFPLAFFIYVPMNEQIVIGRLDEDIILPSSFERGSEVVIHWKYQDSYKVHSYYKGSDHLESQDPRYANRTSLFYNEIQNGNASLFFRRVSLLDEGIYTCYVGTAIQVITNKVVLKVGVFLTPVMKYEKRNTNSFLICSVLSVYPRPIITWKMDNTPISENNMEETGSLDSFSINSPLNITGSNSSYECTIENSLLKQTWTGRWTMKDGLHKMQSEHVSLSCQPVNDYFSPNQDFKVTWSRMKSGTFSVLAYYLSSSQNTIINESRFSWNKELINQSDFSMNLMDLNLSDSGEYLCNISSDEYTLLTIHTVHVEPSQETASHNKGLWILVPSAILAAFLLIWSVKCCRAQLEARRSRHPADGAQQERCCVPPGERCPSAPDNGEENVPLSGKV
Description: flow cytometry on CHO-KI cells stably expressing human B7-H7 (HHLA2), one concentration.

Assay [7] deals with T7, human B7H4 (human, UniProt Q7Z7D3 25-282).
T7 sequence (looked up): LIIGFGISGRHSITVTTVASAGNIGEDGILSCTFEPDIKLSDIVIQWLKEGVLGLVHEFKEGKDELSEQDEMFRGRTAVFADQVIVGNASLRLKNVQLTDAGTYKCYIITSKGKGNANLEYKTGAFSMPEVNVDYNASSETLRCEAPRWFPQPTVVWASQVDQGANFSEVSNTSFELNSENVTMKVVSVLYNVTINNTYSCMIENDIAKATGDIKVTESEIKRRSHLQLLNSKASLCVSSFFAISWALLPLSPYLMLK
In words: cell-based or functional assay.

In assay [8] the target is T7, human B7H4. Description: cell-based or functional assay. The source holds these as a separate data set.

B1: antibody-drug conjugate DB1001-X2 (antibody, DAR 5.4, V domains shown)
VH: QVQLVESGGGVVQPGRSLRLSCAASGFTFRSFGMHWVRQAPGKGLEWVAVISYDASNEYYADSVKGRFIISRDNSKDTLYLQMNSLRAGDTAVYYCAKGGALRWYFAYWGQGTLVTVSS
VL: EIVMTQSPATLSVSPGERATLSCRASQSISSNLGWYQQKPGQAPRLLIYGASTRATGIPARFSGSGSGTEFTLTISSLQSEDFAVYYCQQYRSWPPLTFGGGTKVEIKR
modifications: linker-cytotoxin X2 (payload P-III-30) coupled after TCEP reduction of the antibody; drug-to-antibody ratio (DAR) of 5.4; conjugation residues not stated
notes: also called anti-B7H4 ADC DB1001-X2
On to B1, for which the binding result in assay [1] is “no binding (tested: 100 nM or 300 nM)”; in assay [2], “no binding (tested: 100 nM or 300 nM)”; in assay [3], “no binding (tested: 100 nM or 300 nM)”; in assay [4] it was “no binding (tested: highest concentration 100 nM)”; in assay [6], “no binding (tested: 100 nM or 300 nM)”. The concentration giving a half-maximal response (EC50) in assay [5] was determined as 5.36 nM. In addition, the “IC50 (nM), proliferation inhibition of MX-1 cells with high expression of B7H4 (3D culture, CTG)” value in assay [7] is 52.4 nM. Also, the “IC50 (nM), proliferation inhibition of RL95-2 cells with low expression of B7H4 (3D culture, CTG)” value in assay [7] worked out at 69.4 nM. For the same molecule, the “Fold over blank control, endocytosis by MDA-MB-468 cells” value in assay [8] is 2.4 fold.

Source of the values: patent publication US20250032630A1, “B7H4 ANTIBODY-DRUG CONJUGATE AND USE THEREOF” (Duality Biologics (Suzhou) Co., Ltd., priority 2022, published 2025).
